Laboratory results: publication PMC7613265

Experiments:
[1] = molecular target: RNase E (1-850), catalytically inactive, truncated degradosome scaffold;RhlB;Enolase D303N;D346N (Escherichia coli;Escherichia coli;Escherichia coli) (UniProt P21513+P0A8J8+P0A6P9); assay: SEC-SAXS; details: SEC-SAXS buffer not given in the material. EMSA (30S ribosomal subunit, not listed because it is a ribonucleoprotein): 40 mM Tris-HCl pH 7.5, 100 mM NaCl …
[2] = molecular target: RNase E (1-850) (E. coli) (UniProt P21513); assay: AUC; sedimentation velocity, truncated degradosome at 4 mg/ml in buffer S6 (50 mM Tris-HCl pH 7.5, 400 mM NaCl, 100 mM KCl, 5 mM MgCl2, 1 mM TCEP, 0.02% beta-DDM, 10% glycerol), 4 C

stoichiometry N [2]	Substance	binding [1]
–	GAAGCUGUUUUGGCGGAUGAGAGAAGAUUUUCAGCCUGAUACAGAUUAAAUCAGAACGCAGAAGCGGUCUGAUAAAACAGAAUUUGCCUGGCGGCAGUAGCGCGGUGGUCCCACCUGACCCCAUGCCGAACUCAGAAGUGAAACGCCGUAGCGCCGAUGGUAGUGUGGGGUCUCCCCAUGCGAGAGUAGGGAACUGCCAGGCAUCAAAUAAAACGAAAGGCUCAGUCGAAAGACUGGGCCUUUCG [9S RNA (5S rRNA precursor)]	binds
4	RNase E (1-850) (from UniProt P21513 1-850) (domain or fragment)	–
